# Experimental data from patent publication US20110300138A1 (published 2011).
# Read-outs that look alike come from different tables or passages of the source.
# Columns and labels:
# [1] = target: human TSH receptor (full length, wild type) expressed in CHO cells (human) (UniProt P16473); test: cell-based or functional assay
# [2] = target: human TSHR (wild type, full length) expressed in CHO cells (human) (UniProt P16473); test: cell-based or functional assay
# [3] = target: human TSH receptor (full length, wild type) expressed in CHO cells (human) (UniProt P16473); test: cell-based or functional assay; remark: listed apart in the source
# [4] = target: human TSH receptor (wild type), expressed on transfected CHO cells (human) (UniProt P16473); test: cell-based or functional assay
# [5] = target: human TSH receptor (TSHR), wild type, expressed in CHO cells (human) (UniProt P16473); test: cell-based or functional assay
# [6] = target: human TSHR expressed in CHO cells (human) (UniProt P16473); test: cell-based or functional assay
# [7] = target: human TSHR (wild type, full length) expressed in CHO cells (human) (UniProt P16473); test: cell-based or functional assay; remark: listed apart in the source
# [8] = target: TSHR260-alkaline phosphatase (TSHR260-AP) (human) (UniProt P05187); test: TSHR260-AP bridge ELISA, full length TSHR on wells; 0.1 µg/mL, diluted in assay buffer
# [9] = target: TSHR260-alkaline phosphatase (TSHR260-AP) (human) (UniProt P05187); test: TSHR260-AP bridge ELISA, full length TSHR on wells; 10 µg/mL, diluted in HBD
# TSHR260-AP (human) [10] = test: TSHR260-AP bridge ELISA (full length TSHR on wells, TSHR260-AP in solution); IgG 0.005 µg/mL diluted in HBD serum
# [11] = target: TSHR260-alkaline phosphatase (TSHR260-AP) (human) (UniProt P05187); test: TSHR260-AP bridge ELISA, full length TSHR on wells; 0.05 µg/mL, diluted in assay buffer
# [12] = target: TSHR260-alkaline phosphatase (TSHR260-AP) (human) (UniProt P05187); test: TSHR260-AP bridge ELISA, full length TSHR on wells; 0.05 µg/mL, diluted in HBD
# [13] = target: TSHR260-alkaline phosphatase (TSHR260-AP) (human) (UniProt P05187); test: TSHR260-AP bridge ELISA, full length TSHR on wells; 0.1 µg/mL, diluted in HBD
# TSHR260-AP (human) [14] = test: TSHR260-AP bridge ELISA (full length TSHR on wells, TSHR260-AP in solution); IgG 10 µg/mL diluted in assay buffer
# TSHR260-AP (human) [15] = test: TSHR260-AP bridge ELISA (full length TSHR on wells, TSHR260-AP in solution); IgG 100 µg/mL diluted in HBD serum
# TSHR260-AP (human) [16] = test: TSHR260-AP bridge ELISA (full length TSHR on wells, TSHR260-AP in solution); IgG 0.01 µg/mL diluted in HBD serum
# TSHR260-AP (human) [17] = test: TSHR260-AP bridge ELISA (full length TSHR on wells, TSHR260-AP in solution); IgG 1 µg/mL diluted in assay buffer
# [18] = target: human TSH receptor (full length, wild type) expressed on CHO cells (human) (UniProt P16473); test: cell-based or functional assay
# [19] = target: human TSHR (thyroid stimulating hormone receptor) expressed in transfected CHO cells (human) (UniProt P16473); test: cell-based or functional assay
# M22 IgG (antibody), sequence (VH): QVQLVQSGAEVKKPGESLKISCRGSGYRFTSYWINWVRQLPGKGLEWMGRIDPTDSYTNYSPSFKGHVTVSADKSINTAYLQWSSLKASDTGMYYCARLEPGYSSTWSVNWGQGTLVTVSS
# M22 IgG (antibody), sequence (V domain): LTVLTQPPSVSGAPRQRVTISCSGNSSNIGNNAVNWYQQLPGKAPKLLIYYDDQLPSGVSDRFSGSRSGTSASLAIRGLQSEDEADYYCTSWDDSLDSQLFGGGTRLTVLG
substance,measurement,setting,value
9D33 IgG (antibody),% Inhibition; T4 serum + 100 µg/mL 9D33,[1],94.8%
same,% Inhibition; T5 serum + 100 µg/mL 9D33,[1],95.6%
same,% Inhibition; T6 serum + 100 µg/mL 9D33,[1],94%
same,Cyclic AMP concentration; 100 µg/mL 9D33 alone,[1],2 pmol/mL
same,Cyclic AMP concentration; HBD + 100 µg/mL 9D33,[1],3.9 pmol/mL
same,Cyclic AMP concentration; T4 serum + 100 µg/mL 9D33,[1],4.1 pmol/mL
same,Cyclic AMP concentration; T5 serum + 100 µg/mL 9D33,[1],2.9 pmol/mL
same,Cyclic AMP concentration; T6 serum + 100 µg/mL 9D33,[1],5 pmol/mL
same,% Inhibition of T13 serum stimulation; 100 µg/mL 9D33 IgG,[2],92.2%
same,% Inhibition of T14 serum stimulation; 100 µg/mL 9D33 IgG,[2],89.7%
same,% Inhibition of T15 serum stimulation; 100 µg/mL 9D33 IgG,[2],92.4%
same,Cyclic AMP concentration; 100 µg/mL 9D33 IgG alone,[2],2.3 pmol/mL
same,Cyclic AMP concentration; HBD + 100 µg/mL 9D33 IgG,[2],3.3 pmol/mL
same,Cyclic AMP concentration; T13 serum + 100 µg/mL 9D33 IgG,[2],3.8 pmol/mL
same,Cyclic AMP concentration; T14 serum + 100 µg/mL 9D33 IgG,[2],2.8 pmol/mL
same,Cyclic AMP concentration; T15 serum + 100 µg/mL 9D33 IgG,[2],3.9 pmol/mL
same,% Inhibition; T1 serum + 100 µg/mL 9D33 IgG,[3],95.4%
same,% Inhibition; T2 serum + 100 µg/mL 9D33 IgG,[3],96.8%
same,% Inhibition; T3 serum + 100 µg/mL 9D33 IgG,[3],94.2%
same,Cyclic AMP concentration; 100 µg/mL 9D33 IgG alone,[3],2.1 pmol/mL
same,Cyclic AMP concentration; HBD + 100 µg/mL 9D33 IgG,[3],1.9 pmol/mL
same,Cyclic AMP concentration; T1 serum + 100 µg/mL 9D33 IgG,[3],4.6 pmol/mL
same,Cyclic AMP concentration; T2 serum + 100 µg/mL 9D33 IgG,[3],2 pmol/mL
same,Cyclic AMP concentration; T3 serum + 100 µg/mL 9D33 IgG,[3],3.7 pmol/mL
same,% Inhibition; 9D33 IgG 0.01 µg/mL + T11,[4],17.1%
same,% Inhibition; 9D33 IgG 0.1 µg/mL + T11,[4],50.4%
same,% Inhibition; 9D33 IgG 1 µg/mL + T11,[4],87.7%
same,% Inhibition; 9D33 IgG 10 µg/mL + T11,[4],90.1%
same,% Inhibition; 9D33 IgG 100 µg/mL + T11,[4],94.8%
same,Cyclic AMP concentration; 9D33 IgG 0.01 µg/mL + T11,[4],20.9 pmol/mL
same,Cyclic AMP concentration; 9D33 IgG 0.1 µg/mL + T11,[4],12.5 pmol/mL
same,Cyclic AMP concentration; 9D33 IgG 1 µg/mL + T11,[4],3.1 pmol/mL
same,Cyclic AMP concentration; 9D33 IgG 10 µg/mL + T11,[4],2.5 pmol/mL
same,Cyclic AMP concentration; 9D33 IgG 100 µg/mL + T11,[4],2.1 pmol/mL
same,Cyclic AMP concentration; 9D33 IgG 100 µg/mL alone,[4],1.3 pmol/mL
same,% Inhibition of constitutive activity; 0.001 µg/mL 9D33 IgG,[5],0%
same,% Inhibition of constitutive activity; 0.01 µg/mL 9D33 IgG,[5],0%
same,% Inhibition of constitutive activity; 0.1 µg/mL 9D33 IgG,[5],0%
same,% Inhibition of constitutive activity; 0.3 µg/mL 9D33 IgG,[5],0%
same,% Inhibition of constitutive activity; 1 µg/mL 9D33 IgG,[5],0%
same,% Inhibition of constitutive activity; 3 µg/mL 9D33 IgG,[5],0%
same,% Inhibition of constitutive activity; 10 µg/mL 9D33 IgG,[5],0%
same,% Inhibition of constitutive activity; 100 µg/mL 9D33 IgG,[5],0%
same,Cyclic AMP concentration (constitutive activity); 0.001 µg/mL 9D33 IgG,[5],18.8 pmol/mL
same,Cyclic AMP concentration (constitutive activity); 0.01 µg/mL 9D33 IgG,[5],20.3 pmol/mL
same,Cyclic AMP concentration (constitutive activity); 0.1 µg/mL 9D33 IgG,[5],23.9 pmol/mL
same,Cyclic AMP concentration (constitutive activity); 0.3 µg/mL 9D33 IgG,[5],26.4 pmol/mL
same,Cyclic AMP concentration (constitutive activity); 1 µg/mL 9D33 IgG,[5],35.5 pmol/mL
same,Cyclic AMP concentration (constitutive activity); 3 µg/mL 9D33 IgG,[5],32.3 pmol/mL
same,Cyclic AMP concentration (constitutive activity); 10 µg/mL 9D33 IgG,[5],34.3 pmol/mL
same,Cyclic AMP concentration (constitutive activity); 100 µg/mL 9D33 IgG,[5],38 pmol/mL
same,% Inhibition; 3 ng/mL pTSH + 0.001 µg/mL 9D33 IgG,[6],13%
same,% Inhibition; 3 ng/mL pTSH + 0.01 µg/mL 9D33 IgG,[6],5%
same,% Inhibition; 3 ng/mL pTSH + 0.1 µg/mL 9D33 IgG,[6],28%
same,% Inhibition; 3 ng/mL pTSH + 1 µg/mL 9D33 IgG,[6],67%
same,% Inhibition; 3 ng/mL pTSH + 10 µg/mL 9D33 IgG,[6],87%
same,% Inhibition; 3 ng/mL pTSH + 100 µg/mL 9D33 IgG,[6],95%
same,% Inhibition of T5 serum stimulation; 0.01 µg/mL 9D33 IgG,[7],23%
same,% Inhibition of T5 serum stimulation; 0.1 µg/mL 9D33 IgG,[7],55.7%
same,% Inhibition of T5 serum stimulation; 1 µg/mL 9D33 IgG,[7],93.6%
same,% Inhibition of T5 serum stimulation; 10 µg/mL 9D33 IgG,[7],96.4%
same,% Inhibition of T5 serum stimulation; 100 µg/mL 9D33 IgG,[7],95.3%
same,Cyclic AMP concentration; 0.01 µg/mL 9D33 IgG + T5,[7],49.2 pmol/mL
same,Cyclic AMP concentration; 0.1 µg/mL 9D33 IgG + T5,[7],28.3 pmol/mL
same,Cyclic AMP concentration; 1 µg/mL 9D33 IgG + T5,[7],4.1 pmol/mL
same,Cyclic AMP concentration; 10 µg/mL 9D33 IgG + T5,[7],2.3 pmol/mL
same,Cyclic AMP concentration; 100 µg/mL 9D33 IgG + T5,[7],3 pmol/mL
same,Cyclic AMP concentration; 100 µg/mL 9D33 IgG alone,[7],2.4 pmol/mL
M22 IgG (antibody),Mean absorbance at 405 nm (absorbance at 405 nm),[8],0.653
same,Mean absorbance at 405 nm (absorbance at 405 nm),[9],0.796
same,Mean absorbance at 405 nm (absorbance at 405 nm),TSHR260-AP (human) [10],0.045
same,Mean absorbance at 405 nm (absorbance at 405 nm),[11],0.484
same,Mean absorbance at 405 nm (absorbance at 405 nm),[12],0.204
same,Mean absorbance at 405 nm (absorbance at 405 nm),[13],0.365
same,Mean absorbance at 405 nm (absorbance at 405 nm),TSHR260-AP (human) [14],0.872
same,Mean absorbance at 405 nm (absorbance at 405 nm),TSHR260-AP (human) [15],0.851
same,Mean absorbance at 405 nm (absorbance at 405 nm),TSHR260-AP (human) [16],0.03
same,Mean absorbance at 405 nm (absorbance at 405 nm),TSHR260-AP (human) [17],0.821
same,Cyclic AMP concentration at 0.3 ng/mL M22 IgG,[3],2.36 pmol/mL
same,Cyclic AMP concentration at 1 ng/mL M22 IgG,[3],12 pmol/mL
same,Cyclic AMP concentration at 3 ng/mL M22 IgG,[3],24.6 pmol/mL
same,Cyclic AMP concentration at 10 ng/mL M22 IgG,[3],58.9 pmol/mL
same,Cyclic AMP production concentration at 1 ng/mL M22 IgG,[3],8.1 pmol/mL
same,Cyclic AMP production concentration at 3 ng/mL M22 IgG,[3],24.3 pmol/mL
same,Cyclic AMP production concentration at 10 ng/mL M22 IgG,[3],50.3 pmol/mL
same,Cyclic AMP production concentration at 30 ng/mL M22 IgG,[3],60.9 pmol/mL
same,Cyclic AMP production concentration at 100 ng/mL M22 IgG,[3],64.6 pmol/mL
same,"Cyclic AMP stimulating activity at 1 ng/mL M22 IgG, units/L (NIBSC 90/672)",[3],0.3 units/L
same,"Cyclic AMP stimulating activity at 1 ng/mL M22 IgG, units/mg (NIBSC 90/672)",[3],300 units/mg
same,"Cyclic AMP stimulating activity at 3 ng/mL M22 IgG, units/L (NIBSC 90/672)",[3],0.8 units/L
same,"Cyclic AMP stimulating activity at 3 ng/mL M22 IgG, units/mg (NIBSC 90/672)",[3],267 units/mg
same,"Cyclic AMP stimulating activity of M22 IgG, mean units/mg (NIBSC 90/672; mean of 1, 3 and 10 ng/mL)",[3],286 units/mg
same,Cyclic AMP concentration; 3 ng/mL M22 IgG alone,[18],33.1 pmol/mL
same,Cyclic AMP concentration; 3 ng/mL M22 IgG,[19],44.4 pmol/mL
